Measurements as given in patent US20180230233A1 (Genentech, published 2018).

B1: hu31A.v14 IgG1 (antibody, V domains shown)
VH: EVQLVESGGGLVQPGGSLRLSCAASGFTFSDYGMVWVRQAPGKGLEWVAFISSGSSTVYYADTMKGRFTISRDNSKNTLYLQMNSLRAEDTAVVYCTRRDNYDWYFDVWGQGTLVTVSS
VL: DIQMTQSPSSLSASVGDRVTITCSASSSVTYMYWYQQKPGKSPKPWIYRTSDLASGVPSRFSGSGSGTDFTLTISSLQPEDFATYYCQHYHSYPLTFGQGTKVEIK
B2: hu31A.v5 IgG1 (antibody, V domains shown)
VH: EVQLVESGGGLVQPGGSLRLSCAASGFTFSDYGMVWVRQAPGKGLEWVAFISSGSSTVYYADTMKGRFTISRDNSKNTLYLQMNSLRAEDTAVVYCARRDNYDWYFDVWGQGTLVTVSS
VL: DIQMTQSPSSLSASVGDRVTITCSASSSVTYMYWYQQKPGKSPKPWIYRTSDLASGVPSRFSGSGSGTDFTLTISSLQPEDFATYYCQHYHSYPLTFGQGTKVEIK
notes: also called v5 (of hu31A)
B3: hu31A.v7 IgG1 (antibody, V domains shown)
VH: EVQLVESGGGLVQPGGSLRLSCAASGFTFSSFGMHWVRQAPGKGLEWVAFISSGSSTVYYADTMKGRFTISRDNSKNTLYLQMNSLRAEDTAVVYCARRDNYDWYFDVWGQGTLVTVSS
VL: DIQMTQSPSSLSASVGDRVTITCSASSSVTYMYWYQQKPGKAPKLLIYRTSDLASGVPSRFSGSGSGTDFTLTISSLQPEDFATYYCQHYHSYPLTFGQGTKVEIK
notes: also called v7 (of hu31A)
B4: hu31A.v12 IgG1 (antibody, V domains shown)
VH: EVQLVESGGGLVQPGGSLRLSCAASGFTFSDYGMVWVRQAPGKGLEWVAFISSGSSTVYYADTMKGRFTISRDNSKNTLYLQMNSLRAEDTAVYYCTRRNYDDWYFDVWGQGTLVTVSS
VL: DIQLTQSPSSLSASVGDRVTITCSASSSVTYMYWYQQKPGKSPKPWIYRTSDLASGVPSRFSGSGSGTDYTLTISSLQPEDFATYYCQHYHSYPLTFGQGTKVEIK
notes: also called v12 (of hu31A)
B5: hu31A.v15 IgG1 (antibody, V domains shown)
VH: EVQLVESGGGLVQPGGSLRLSCAASGFTFSDYGMVWVRQAPGKGLEWVAFISSGSSTVYYADTMKGRFTISRDNSKNTLYLQMNSLRAEDTAVVYCTRRDNYDWYFDVWGQGTLVTVSS
VL: DIQLTQSPSSLSASVGDRVTITCSASSSVTYMYWYQQKPGKSPKPWIYRTSDLASGVPSRFSGSGSGTDYTLTISSLQPEDFATYYCQHYHSYPLTFGQGTKVEIK
B6: hu31A.v1 IgG1 (antibody, V domains shown)
VH: EVQLVESGGGLVQPGGSLRLSCAASGFTFSDYGMVWVRQAPGKGLEWVGFISSGSSTVYYADTMKGRFTISRDNSKNTLYLQMNSLRAEDTAVVYCARRDNYDWYFDVWGQGTLVTVSS
VL: DIQMTQSPSSLSASVGDRVTITCSASSSVTYMYWYQQKPGKAPKLLIYRTSDLASGVPSRFSGSGSGTDFTLTISSLQPEDFATYYCQHYHSYPLTFGQGTKVEIK
notes: also called v1 (of hu31A)
B7: hu31A.v10 IgG1 (antibody, V domains shown)
VH: EVQLVESGGGLVQPGGSLRLSCAASGFTFSDYGMVWVRQAPGKGLEWVAFISSGSSTVYYADTMKGRFTISRDNSKNTLYLQMNSLRAEDTAVYYCTRRNYDDWYFDVWGQGTLVTVSS
VL: DIQMTQSPSSLSASVGDRVTITCSASSSVTYMYWYQQKPGKAPKLLIYRTSDLASGVPSRFSGSGSGTDFTLTISSLQPEDFATYYCQHYHSYPLTFGQGTKVEIK
notes: also called v10 (of hu31A)
B8: hu31A.v3 IgG1 (antibody, V domains shown)
VH: EVQLVESGGGLVQPGGSLRLSCAASGFTFSDYGMVWVRQAPGKGLEWVGFISSGSSTVYYADTMKGRFTISRDNSKNTLYLQMNSLRAEDTAVVYCARRDNYDWYFDVWGQGTLVTVSS
VL: DIQLTQSPSSLSASVGDRVTITCSASSSVTYMYWYQQKPGKSPKPWIYRTSDLASGVPSRFSGSGSGTDYTLTISSLQPEDFATYYCQHYHSYPLTFGQGTKVEIK
notes: also called v3 (of hu31A)
B9: hu31A.v4 IgG1 (antibody, V domains shown)
VH: EVQLVESGGGLVQPGGSLRLSCAASGFTFSDYGMVWVRQAPGKGLEWVAFISSGSSTVYYADTMKGRFTISRDNSKNTLYLQMNSLRAEDTAVVYCARRDNYDWYFDVWGQGTLVTVSS
VL: DIQMTQSPSSLSASVGDRVTITCSASSSVTYMYWYQQKPGKAPKLLIYRTSDLASGVPSRFSGSGSGTDFTLTISSLQPEDFATYYCQHYHSYPLTFGQGTKVEIK
notes: also called v4 (of hu31A)
B10: hu31A.v6 IgG1 (antibody, V domains shown)
VH: EVQLVESGGGLVQPGGSLRLSCAASGFTFSDYGMVWVRQAPGKGLEWVAFISSGSSTVYYADTMKGRFTISRDNSKNTLYLQMNSLRAEDTAVVYCARRDNYDWYFDVWGQGTLVTVSS
VL: DIQLTQSPSSLSASVGDRVTITCSASSSVTYMYWYQQKPGKSPKPWIYRTSDLASGVPSRFSGSGSGTDYTLTISSLQPEDFATYYCQHYHSYPLTFGQGTKVEIK
notes: also called v6 (of hu31A)
B11: hu31A.v2 IgG1 (antibody, V domains shown)
VH: EVQLVESGGGLVQPGGSLRLSCAASGFTFSDYGMVWVRQAPGKGLEWVGFISSGSSTVYYADTMKGRFTISRDNSKNTLYLQMNSLRAEDTAVVYCARRDNYDWYFDVWGQGTLVTVSS
VL: DIQMTQSPSSLSASVGDRVTITCSASSSVTYMYWYQQKPGKSPKPWIYRTSDLASGVPSRFSGSGSGTDFTLTISSLQPEDFATYYCQHYHSYPLTFGQGTKVEIK
notes: also called v2 (of hu31A)
B12: hu31A.v9 IgG1 (antibody, V domains shown)
VH: EVQLVESGGGLVQPGGSLRLSCAASGFTFSSFGMHWVRQAPGKGLEWVAFISSGSSTVYYADTMKGRFTISRDNSKNTLYLQMNSLRAEDTAVVYCARRDNYDWYFDVWGQGTLVTVSS
VL: DIQLTQSPSSLSASVGDRVTITCSASSSVTYMYWYQQKPGKSPKPWIYRTSDLASGVPSRFSGSGSGTDYTLTISSLQPEDFATYYCQHYHSYPLTFGQGTKVEIK
notes: also called v9 (of hu31A)
B13: hu31A.v8 IgG1 (antibody, V domains shown)
VH: EVQLVESGGGLVQPGGSLRLSCAASGFTFSSFGMHWVRQAPGKGLEWVAFISSGSSTVYYADTMKGRFTISRDNSKNTLYLQMNSLRAEDTAVVYCARRDNYDWYFDVWGQGTLVTVSS
VL: DIQMTQSPSSLSASVGDRVTITCSASSSVTYMYWYQQKPGKSPKPWIYRTSDLASGVPSRFSGSGSGTDFTLTISSLQPEDFATYYCQHYHSYPLTFGQGTKVEIK
notes: also called v8 (of hu31A)
B14: hu31A.v13 IgG1 (antibody, V domains shown)
VH: EVQLVESGGGLVQPGGSLRLSCAASGFTFSDYGMVWVRQAPGKGLEWVAFISSGSSTVYYADTMKGRFTISRDNSKNTLYLQMNSLRAEDTAVVYCTRRDNYDWYFDVWGQGTLVTVSS
VL: DIQMTQSPSSLSASVGDRVTITCSASSSVTYMYWYQQKPGKAPKLLIYRTSDLASGVPSRFSGSGSGTDFTLTISSLQPEDFATYYCQHYHSYPLTFGQGTKVEIK
B15: huE104.v9 IgG1 (chimeric heavy chain) (antibody, V domains shown)
VH: QSLEESGGGLFKPTDTLTLTCTVSRFSLIGYAITWVRQSPENGLEWIGGISSAATTFYSSWAKSRSTITRNTNENTVTLKMTSLTAADTATYFCARDPRGYGAALDRLDLWGQGTLVTVSS
VL: DIQMTQSPSSLSASVGDRVTITCQSIKSVYNNRLGWYQQKPGKAPKLLIYETSILTSGVPSRFSGSGSGTDFTLTISSLQPEDFATYYCAGGFDRSGDTTFGQGTKVEIK
notes: also called E104.v9 chimeric clone
B16: huE104.v7 IgG1 (antibody, V domains shown)
VH: EVQLVESGPGLVKPSETLSLTCTVSRFSLIGYAITWVRQPPGKGLEWIGGISSAATTFYSSWAKSRSTISRDTSKNQVSLKLSSVTAADTAVYFCARDPRGYGAALDRLDLWGQGTLVTVSS
VL: DAQLTQSPSSLSASVGDRVTITCQSIKSVYNNRLGWYQQKPGKPPKLLIYETSILTSGVPSRFSGSGSETDFTLTISSLQPEDFATYFCAGGFDRSGDTTFGQGTKVEIK
B17: huE104.v11 IgG1 (antibody, V domains shown)
VH: EVQLVESGPGLVKPSETLSLTCTVSRFSLIGYAITWIRQPPGKGLEWIGGISSAATTFYSSWAKSRVTISVDTSKNQVSLKLSSVTAADTAVYYCARDPRGYGAALDRLDLWGQGTLVTVSS
VL: DIQMTQSPSSLSASVGDRVTITCQSIKSVYNNRLGWYQQKPGKAPKLLIYETSILTSGVPSRFSGSGSGTDFTLTISSLQPEDFATYYCAGGFDRSGDTTFGQGTKVEIK
notes: also called v11 (of huE104)
B18: huE104.v6 IgG1 (antibody, V domains shown)
VH: EVQLVESGPGLVKPSETLSLTCTVSRFSLIGYAITWIRQPPGKGLEWIGGISSAATTFYSSWAKSRVTISRDTSKNQVSLKLSSVTAADTAVYYCARDPRGYGAALDRLDLWGQGTLVTVSS
VL: DAQLTQSPSSLSASVGDRVTITCQSIKSVYNNRLGWYQQKPGKPPKLLIYETSILTSGVPSRFSGSGSETDFTLTISSLQPEDFATYFCAGGFDRSGDTTFGQGTKVEIK
B19: huE104.v3 IgG1 (antibody, V domains shown)
VH: EVQLVESGPGLVKPSETLSLTCTVSRFSLIGYAITWVRQPPGKGLEWIGGISSAATTFYSSWAKSRSTISRDTSKNQVSLKLSSVTAADTAVYFCARDPRGYGAALDRLDLWGQGTLVTVSS
VL: DIQMTQSPSSLSASVGDRVTITCQSIKSVYNNRLGWYQQKPGKAPKLLIYETSILTSGVPSRFSGSGSGTDFTLTISSLQPEDFATYYCAGGFDRSGDTTFGQGTKVEIK
B20: huE104.v5 IgG1 (antibody, V domains shown)
VH: EVQLVESGPGLVKPSETLSLTCTVSRFSLIGYAITWIRQPPGKGLEWIGGISSAATTFYSSWAKSRVTISVDTSKNQFSLKLSSVTAADTAVYYCARDPRGYGAALDRLDLWGQGTLVTVSS
VL: DAQLTQSPSSLSASVGDRVTITCQSIKSVYNNRLGWYQQKPGKPPKLLIYETSILTSGVPSRFSGSGSETDFTLTISSLQPEDFATYFCAGGFDRSGDTTFGQGTKVEIK

What follows are binders tested against T1, recombinant His-tagged human tryptase beta 1 monomer (human, UniProt Q15661 31-275) (assay: SPR (BIAcore T200); IgG1 captured by anti-human Fc, His-tagged monomer injected).
T1 construct: also called His6-tagged tryptase monomer; human tryptase b1 monomer
T1 sequence (Q15661 other isoform, or with tags, fused parts or gaps): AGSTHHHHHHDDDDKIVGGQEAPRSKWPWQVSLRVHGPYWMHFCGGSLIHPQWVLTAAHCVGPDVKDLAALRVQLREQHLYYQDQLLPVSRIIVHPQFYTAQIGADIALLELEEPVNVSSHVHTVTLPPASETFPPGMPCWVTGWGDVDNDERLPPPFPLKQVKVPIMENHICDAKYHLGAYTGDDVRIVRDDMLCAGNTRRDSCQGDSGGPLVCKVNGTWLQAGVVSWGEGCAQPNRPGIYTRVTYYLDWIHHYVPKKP
Description: The assay can use a BIAcore® T200 or an equivalent device. Briefly, BIAcore® Series S CM5 sensor chips (or equivalent sensor chips) are immobilized with monoclonal mouse anti-human IgG (Fc) antibody and anti-tryptase antibodies are subsequently captured on the flow cell. Serial 3-fold dilutions of the human tryptase beta 1 monomer are injected at a flow rate of 30 μl/min. Each sample is analyzed with 3 min association and 10 min dissociation. The assay is performed at 25° C. After each injection, the chip is regenerated using 3 M MgCl₂. Binding response is corrected by subtracting the response units (RU) from a flow cell capturing an irrelevant IgG at similar density. A 1:1 Languir model of simultaneous fitting of kₒₙ and koff is used for kinetics analysis.
In this experiment, all the humanized variants were expressed as IgG by transient transfection of 293 cells. IgG was purified with protein G affinity chromatography. The affinity of each variant for recombinant His-tagged human tryptase beta 1 monomer (SEQ ID NO: 128) was determined by SPR analysis using a BIAcore® T200. BIAcore® Series S CM5 sensor chips were immobilized with monoclonal mouse anti-human IgG (Fc) antibody (Human antibody capture kit from GE Healthcare) and anti-tryptase variants were subsequently captured on each flow cell. Serial 3-fold dilutions of the human tryptase beta 1 monomer were injected at a flow rate of 30 μl/min. Each sample was analyzed with 3 min association and 10 min dissociation. After each injection, the chip was regenerated using 3 M MgCl₂. Binding response was corrected by subtracting the response units (RU) from a flow cell capturing an irrelevant IgG at similar density. A 1:1 Languir model of simultaneous fitting of kₒₙ and koff was used for kinetics analysis.
Work on B1 yielded a Kd of 1.34 nM.
B2 was tested, and the Kd was 1.68 nM.
For B3, the Kd was 2.06 nM.
For B4, the Kd was 0.43 nM.
With B5 the Kd was 1.32 nM.
Binder B6 has a Kd of 4.04 nM.
B7 gave a Kd of 1.19 nM.
B8 gave a Kd of 0.79 nM.
Binder B9 has a Kd of 11.8 nM.
Work on B10 yielded a Kd of 1.65 nM.
B11 showed a Kd of 0.74 nM.
For B12, the Kd was 0.94 nM.
B13 showed a Kd of 0.94 nM.
With B14 the Kd was 9.65 nM.
In the case of B15, the Kd is reported as 0.24 nM.
Binder B16 has a Kd of 0.25 nM.
With B17 the Kd was 0.32 nM.
In the case of B18, the Kd is reported as 0.14 nM.
B19 showed a Kd of 0.21 nM.
Binder B20 has a Kd of 0.18 nM.
